According to US20180094051A1, “METHOD FOR INHIBITING LYMPHANGIOGENESIS BY ADMINISTRATION OF AN INHIBITOR OF THE CXCL12 PATHWAY” (Tsinghua University, priority 2012, published 2018):
Entries after “also recorded” stand apart in the source; their conditions may differ.

Tests used:
chemokine receptor CXCR4 = assay: qRT-PCR of chemokine receptor mRNA in VEGF-C-stimulated lymphatic endothelial cells; type: cell-based; conditions: VEGF-C-stimulated mouse lymphatic endothelial cells vs untreated cells
Method: The isolation and extraction of total RNA from cells was performed using TRIZOL reagent (purchased from Invitrogen) following the standard operations as described in the reagent instructions. 1 mL of TRIZOL was added to the primary lymphatic endothelial cells (about 1×10^6) collected by centrifugation, repeatedly pipetted up and down for 30 times, and then set aside at room temperature for 5 minutes. After centrifugation at 10,000×g at 4° C. for 15 minutes, the supernatant was […] gently. 0.2 mL of chloroform was added to the supernatant, vortexed vigorously for about 15 seconds, and then set aside at room temperature for 3 minutes. […]
The synthesis of first strand cDNA was performed using a Fermentas kit (RevertAid™ First Strand cDNA Synthesis Kits) according to the standard instructions. […] The reverse transcription product was used in subsequent PCR and fluorescence quantitative RT-PCR, and the rest of the product was stored in a refrigerator at −80° C.
Fluorescence Quantitative Real-Time PCR was performed using a kit from Stratagene (Brilliant II SYBR® Green QRT-PCR Master Mix). The fluorescence quantitative PCR instrument was MX3000P (purchased from Stratagene), the fluorescence dye was SYBR Green, the volume of the reaction system was 20 μL, and the cycle number of the reaction was 40. […]

[1] = tested on: mouse lymphatic endothelial cells; assay: Cell chemotaxis assay (Transwell); type: cell-based; conditions: agent in outer chamber (CXCL12 1, 20, 100 ng/mL; VEGF-C 100 ng/mL), 6 hours
Method: The migration ability of mouse lymphatic endothelial cells was assessed using 8-μm-pore Transwell bucket (filter membrane) (purchased from Costar). The transwell bucket was placed into a 24-well plate. Mouse primary lymphatic endothelial cells (mLECs) at passage 2 or 3 in good conditions were selected, and divided into five groups, four parallel samples for each group and approximately 2×10^4 cells for each parallel sample. The cells were digested with trypsin, resuspended in 200 μL of fresh serum-free endothelial cell culture medium (ECM, purchased from Sciencell), and then seeded into the inner chambers of the Transwell bucket. To each outer chamber was added 800 μL of serum-free endothelial cell culture medium mixed with 1 ng/mL, 20 ng/mL, 100 ng/mL of chemokine CXCL12 (purchased from R&D Systems), 100 ng/mL of VEGF-C (purchased from R&D Systems) and PBS control, respectively. The culture plate was placed into an incubator and incubated under 5% CO2 at 37° C. for 6 hours.
After taking out the culture plate, the Transwell bucket was fixed in 4% paraformaldehyde solution for 15 minutes. The Transwell bucket was rinsed twice in PBS, stained with 0.1% crystal violet solution for 30 minutes, and then washed with PBS to remove the non-specifically bound crystal violet. The cells inside Transwell membrane were wiped off gently with medical cotton swabs. Note that the cells on the edge of the membrane should also be wiped off to avoid affecting cell counting. The Transwell bucket was placed under a microscope (Olympus IX71 microscope), and the cells migrated from the outer membrane were observed by microscopy. 8 fields per group were photographed randomly to count the cells.
The migration ability of mouse lymphatic endothelial cells was assessed using 8-μm-pore Transwell bucket (purchased from Costar). The bucket was placed into a 24-well plate. Mouse primary lymphatic endothelial cells (mLECs) at passage 2 or 3 in good conditions were selected, and divided into six groups, four parallel samples for each group, and approximately 2×10^4 cells for each parallel sample. The cells were digested with trypsin and resuspended in 200 μL, of fresh serum-free endothelial cell culture medium (ECM, purchased from Sciencell). The cells were pretreated for 30 minutes with dimethyl sulfoxide (DMSO) as a control, protein kinase B (Akt) antagonist LY294002 (10 μM, purchased from Sigma-Aldrich) and extracellular signal-regulated kinase (Erk) antagonist U0126 (10 μM, purchased from Sigma-Aldrich), respectively, and then seeded into the inner chambers of the Transwell bucket. […] The cells were stained and the number of the migrated cells was counted.
The migration ability of mouse lymphatic endothelial cells was detected by using 8-μm-pore Transwell bucket (purchased from Costar). […]

B1: VEGF-C: Vascular Endothelial Growth Factor C, the major pro-lymphangiogenesis factor; purchased from R&D Systems (protein, UniProt P49767 112-227, looked up)
Vascular endothelial growth …: AHYNTEILKSIDNEWRKTQCMPREVCIDVGKEFGVATNTFFKPPCVSVYRCGGCCNSEGLQCMNTSTSYLSKTLFEITVPLSQGPKPVTISFANHTSCRCMSKLDVYRQVHSIIRR
Q: With B1 as the molecule, how does the “chemokine receptor CXCR4 mRNA level” value (chemokine receptor CXCR4) read?
A: Its value is “significantly upregulated by about three times; also recorded: specifically up-regulated the expression of chemokine receptor CXCR4”.

Q: And the “migration of mouse lymphatic endothelial cells” value [1]?
A: Its value is “could promote the migration of mouse lymphatic endothelial cells”.
